Assay [1] relates to MPB (myelin basic protein). The experiment in a line: In vitro kinase activity of protein kinase N beta derivatives, MPB/MBP phosphorylation. It counts as biochemical. Set-up: key to Activity: +: active; −: inactive; !: no “hyper activation” was observed as one might have expected from comparable mutations in other kinases (Morgan and Debond, 1994). The following applies: for phosphorylation of MBP, 32P incorporation: immune precipitates, gamma 32P-ATP, autoradiography, FIG. 11B. Here is the method:
The respective fragments were transiently epressed in HeLa cells. Their relative expression was determined by Western-blot analysis of Hela cell extracts using an anti-PKNbeta antibody.
MPB is myelin basic protein which is a standard in vitro phosphorylation substrate.
As may be taken from FIG. 9A apart from the full-length protein kinase N beta only the kinase domain in its otherwise wildtype form is active in phosphorylating MPB.
The PKNbeta-derived molecules were immune-precipitated from the cell extracts shown in FIG. 10 by using anti-tag antibodies. The immune precipitates were washed as described (Klippel et al., 1996) and divided in two halfs. One half was incubated with 5 μg MBP (UBI) as a phosphorylation substrate, 4 mM MgCl2 and gamma ^32P-ATP in a buffered solution for 10 min at room temperature. In addition, phosphatase inhibitors and inhibitors against unspecifically acting kinases were added as in Klippel et al., 1998. Incorporation of radioactive phosphate was detected by autoradiography after separating the reaction products by 16% SDS-PAGE (FIG. 11B).

In the next assay the test system is GST-GSK3 fusion protein. The experiment in a line: Non-radioactive in vitro kinase assay, anti-phospho GSK3alpha Western blot. It counts as biochemical. Conditions: immune precipitates, 200 μM rATP, FIG. 11A. As for the experimental part: The second half of the immune precipitates was incubated with 1 μg GST-GSK3 fusion protein (Cell Signaling Technology) as a phosphorylation substrate in the presence of 200 μM rATP. The reaction mixture was subsequently analyzed by 8-16% gradient SDS-PAGE and Western blotting using the anti-phospho GSK3alpha antibody (Cell Signaling Technology) (FIG. 11A).
The specificity of the in vitro phosphorylation reactions was controlled by analyzing kinase defective variants (e.g. containing mutations in the ATP binding site, see above) in parallel to active protein.
In a first step, the suitability of a non-radioactive screening formate was determined, whereby the various protein kinase N beta derivatives as already discussed in connection with example 10, were used for phosphorylating a suitable substrate. Such substrate may, for example, be MBP or a GSK3 peptide which is typically immobilised on a suitable carrier such as agarose- or sepharose beads or on plastic surfaces. In the present case and as depicted in FIG. 11A, the substrate is a GSK3-derived peptide fused to paramyosin. […] The phosphorylated substrate in the present case was detected by anti-phospho GSK3 alpha antibody (mentioned above).

Entries after “also recorded” stand apart in the source; their conditions may differ.

B1: ΔN comprising amino acids 288-889: protein kinase N beta derivative comprising amino acids 288-889 (protein, UniProt Q6P5Z2 288-889, looked up, fragment)
chain: CEQLLTAVPGRSPAAALASSPSEGWLRTKAKHQRGRGELASEVLAVLKVDNRVVGQTGWGQVAEQSWDQTFVIPLERARELEIGVHWRDWRQLCGVAFLRLEDFLDNACHQLSLSLVPQGLLFAQVTFCDPVIERRPRLQRQERIFSKRRGQDFLRASQMNLGMAAWGRLVMNLLPPCSSPSTISPPKGCPRTPTTLREASDPATPSNFLPKKTPLGEEMTPPPKPPRLYLPQEPTSEETPRTKRPHMEPRTRRGPSPPASPTRKPPRLQDFRCLAVLGRGHFGKVLLVQFKGTGKYYAIKALKKQEVLSRDEIESLYCEKRILEAVGCTGHPFLLSLLACFQTSSHACFVTEFVPGGDLMMQIHEDVFPEPQARFYVACVVLGLQFLHEKKIIYRDLKLDNLLLDAQGFLKIADFGLCKEGIGFGDRTSTFCGTPEFLAPEVLTQEAYTRAVDWWGLGVLLYEMLVGECPFPGDTEEEVFDCIVNMDAPYPGFLSVQGLEFIQKLLQKCPEKRLGAGEQDAEEIKVQPFFRTTNWQALLARTIQPPFVPTLCGPADLRYFEGEFTGLPPALTPPAPHSLLTARQQAAFRDFDFVSERFLEP
Consider B1, for which, in assay [1] (transient overexpression in HeLa cells, MPB substrate, FIG. 9), the Activity result is listed as “−*”.

B2: Full length wt: full length wildtype PKNbeta molecule (889 amino acids) (protein)
chain: MEEGAPRQPGPSQWPPEDEKEVIRRAIQKELKIKEGVENLRRVATDRRHLGHVQQLLRSSNRRLEQLHGELRELHARILLPGPGPGPAEPVASGPRPWAEQLRARHLEALRRQLHVELKVKQGAENMTHTCASGTPKERKLLAAAQQMLRDSQLKVALLRMKISSLEASGSPEPGPELLAEELQHRLHVEAAVAEGAKNVVKLLSSRRTQDRKALAEAQAQLQESSQKLDLLRLALEQLLEQLPPAHPLRSRVTRELRAAVPGYPQPSGTPVKPTALTGTLQVRLLGCEQLLTAVPGRSPAAALASSPSEGWLRTKAKHQRGRGELASEVLAVLKVDNRVVGQTGWGQVAEQSWDQTFVIPLERARELEIGVHWRDWRQLCGVAFLRLEDFLDNACHQLSLSLVPQGLLFAQVTFCDPVIERRPRLQRQERIFSKRRGQDFLRRSQMNLGMAAWGRLVMNLLPPCSSPSTISPPKGCPRTPTTLREASDPATPSNFLPKKTPLGEEMTPPPKPPRLYLPQEPTSEETPRTKRPHMEPRTRRGPSPPASPTRKPPRLQDFRCLAVLGRGHFGKVLLVQFKGTGKYYAIKALKKQEVLSRDEIESLYCEKRILEAVGCTGHPFLLSLLVCFQTSSHARFVTEFVPGGDLMMQIHEDVFPEPQARFYVACVVLGLQFLHEKKIIYRDLKLDNLLLDAQGFLKIADFGLCKEGIGFGDRTSTFCGTPEFLAPEVLTQEAYTQAVDWWALGVLLYEMLVGECPFPGDTEEEVFDCIVNMDAPYPGFLSVQGLEFIQKLLQKCPEKRLGAGEQDAEEIKVQPFFRTTNWQALLARTIQPPFVPTLCGPADLRYFEGEFTGLPPALTPPAPHSLLTARQQAAFRDFDFVSERFLEP
Consider B2, for which the “phosphorylation of MBP, 32P incorporation” value (from here on “phosphorylation of MBP”) in assay [1] is recorded as “show activity”. The “phosphorylating MPB (FIG. 9A)” value in assay [1] (transient overexpression in HeLa cells) is listed as “active”. Also, in the assay on GST-GSK3 fusion protein (listed as full length wildtype protein kinase N beta), the “phosphorylation of GSK3-derived substrate” value was “suitable to phosphorylate the substrate; also recorded: show activity”.

B3: full length TA: full length protein kinase N beta with TA mutation at amino acid 718 (protein)
chain: MEEGAPRQPGPSQWPPEDEKEVIRRAIQKELKIKEGVENLRRVATDRRHLGHVQQLLRSSNRRLEQLHGELRELHARILLPGPGPGPAEPVASGPRPWAEQLRARHLEALRRQLHVELKVKQGAENMTHTCASGTPKERKLLAAAQQMLRDSQLKVALLRMKISSLEASGSPEPGPELLAEELQHRLHVEAAVAEGAKNVVKLLSSRRTQDRKALAEAQAQLQESSQKLDLLRLALEQLLEQLPPAHPLRSRVTRELRAAVPGYPQPSGTPVKPTALTGTLQVRLLGCEQLLTAVPGRSPAAALASSPSEGWLRTKAKHQRGRGELASEVLAVLKVDNRVVGQTGWGQVAEQSWDQTFVIPLERARELEIGVHWRDWRQLCGVAFLRLEDFLDNACHQLSLSLVPQGLLFAQVTFCDPVIERRPRLQRQERIFSKRRGQDFLRRSQMNLGMAAWGRLVMNLLPPCSSPSTISPPKGCPRTPTTLREASDPATPSNFLPKKTPLGEEMTPPPKPPRLYLPQEPTSEETPRTKRPHMEPRTRRGPSPPASPTRKPPRLQDFRCLAVLGRGHFGKVLLVQFKGTGKYYAIKALKKQEVLSRDEIESLYCEKRILEAVGCTGHPFLLSLLVCFQTSSHARFVTEFVPGGDLMMQIHEDVFPEPQARFYVACVVLGLQFLHEKKIIYRDLKLDNLLLDAQGFLKIADFGLCKEGIGFGDRTSAFCGTPEFLAPEVLTQEAYTQAVDWWALGVLLYEMLVGECPFPGDTEEEVFDCIVNMDAPYPGFLSVQGLEFIQKLLQKCPEKRLGAGEQDAEEIKVQPFFRTTNWQALLARTIQPPFVPTLCGPADLRYFEGEFTGLPPALTPPAPHSLLTARQQAAFRDFDFVSERFLEP
With B3, in assay [1], the “phosphorylation of MBP” value is recorded as “background activity of unspecific kinases”. Also, in the assay with GST-GSK3 fusion protein, the “phosphorylation of GSK3-derived substrate” value is listed as “no”.

B4: full length KE: full length protein kinase N beta with kinase defective KE mutation at position 588 (protein)
chain: MEEGAPRQPGPSQWPPEDEKEVIRRAIQKELKIKEGVENLRRVATDRRHLGHVQQLLRSSNRRLEQLHGELRELHARILLPGPGPGPAEPVASGPRPWAEQLRARHLEALRRQLHVELKVKQGAENMTHTCASGTPKERKLLAAAQQMLRDSQLKVALLRMKISSLEASGSPEPGPELLAEELQHRLHVEAAVAEGAKNVVKLLSSRRTQDRKALAEAQAQLQESSQKLDLLRLALEQLLEQLPPAHPLRSRVTRELRAAVPGYPQPSGTPVKPTALTGTLQVRLLGCEQLLTAVPGRSPAAALASSPSEGWLRTKAKHQRGRGELASEVLAVLKVDNRVVGQTGWGQVAEQSWDQTFVIPLERARELEIGVHWRDWRQLCGVAFLRLEDFLDNACHQLSLSLVPQGLLFAQVTFCDPVIERRPRLQRQERIFSKRRGQDFLRRSQMNLGMAAWGRLVMNLLPPCSSPSTISPPKGCPRTPTTLREASDPATPSNFLPKKTPLGEEMTPPPKPPRLYLPQEPTSEETPRTKRPHMEPRTRRGPSPPASPTRKPPRLQDFRCLAVLGRGHFGKVLLVQFKGTGKYYAIEALKKQEVLSRDEIESLYCEKRILEAVGCTGHPFLLSLLVCFQTSSHARFVTEFVPGGDLMMQIHEDVFPEPQARFYVACVVLGLQFLHEKKIIYRDLKLDNLLLDAQGFLKIADFGLCKEGIGFGDRTSTFCGTPEFLAPEVLTQEAYTQAVDWWALGVLLYEMLVGECPFPGDTEEEVFDCIVNMDAPYPGFLSVQGLEFIQKLLQKCPEKRLGAGEQDAEEIKVQPFFRTTNWQALLARTIQPPFVPTLCGPADLRYFEGEFTGLPPALTPPAPHSLLTARQQAAFRDFDFVSERFLEP
B4: the “phosphorylation of MBP” value in assay [1] is recorded as “background activity of unspecific kinases”. Also, the “phosphorylation of GSK3-derived substrate” value in the assay on GST-GSK3 fusion protein was “no”.
